Laboratory results taken from patent publication US20050037448A1.

Assays:
[1] = target: des-31,32-proinsulin (UniProt P01308); test: sandwich immunoenzymatic C-peptide assay: PEP001 beads, goat polyclonal conjugate; no AC1D4 or BC9B6
[2] = target: des-64,65-proinsulin (UniProt P01308); test: as above
[3] = target: human proinsulin (human) (UniProt P01308); test: as above
[4] = target: human proinsulin (human) (UniProt P01308); test: competitive RIA, PEP001-coated tubes, 125I-Tyr-C-peptide; serum E2 overloaded with 0.16 pmol/ml proinsulin; no AC1D4
[5] = target: human proinsulin (human) (UniProt P01308); test: competitive RIA, PEP001-coated tubes, 125I-Tyr-C-peptide; serum E2 overloaded with 0.67 pmol/ml proinsulin; no AC1D4
[6] = target: des-31,32-proinsulin (UniProt P01308); test: sandwich immunoenzymatic C-peptide assay: PEP001 beads, goat polyclonal anti-C-peptide-alkaline phosphatase; no BC9B6
[7] = target: des-64,65-proinsulin (UniProt P01308); test: as above
[8] = target: human proinsulin (human) (UniProt P01308); test: as above
[9] = target: des-31,32-proinsulin (UniProt P01308); test: competitive RIA, PEP001-coated tubes, 125I-Tyr-C-peptide; serum E1 overloaded with 0.16 pmol/ml des-31,32-proinsulin; no AC1D4
[10] = target: des-31,32-proinsulin (UniProt P01308); test: competitive RIA, PEP001-coated tubes, 125I-Tyr-C-peptide; serum E1 overloaded with 0.67 pmol/ml des-31,32-proinsulin; no AC1D4
[11] = target: des-31,32-proinsulin (UniProt P01308); test: competitive RIA, PEP001-coated tubes, 125I-Tyr-C-peptide; serum E2 overloaded with 0.16 pmol/ml des-31,32-proinsulin; no AC1D4
[12] = target: des-64,65-proinsulin (UniProt P01308); test: competitive RIA, PEP001-coated tubes, 125I-Tyr-C-peptide; serum E1 overloaded with 0.16 pmol/ml des-64,65-proinsulin; no AC1D4
[13] = target: des-64,65-proinsulin (UniProt P01308); test: competitive RIA, PEP001-coated tubes, 125I-Tyr-C-peptide; serum E2 overloaded with 3.33 pmol/ml des-64,65-proinsulin; no AC1D4
[14] = target: human proinsulin (human) (UniProt P01308); test: competitive RIA, PEP001-coated tubes, 125I-Tyr-C-peptide; serum E1 overloaded with 0.67 pmol/ml proinsulin; competitor AC1D4 20 µg/ml
[15] = target: human proinsulin (human) (UniProt P01308); test: competitive RIA, PEP001-coated tubes, 125I-Tyr-C-peptide; serum E2 overloaded with 0.67 pmol/ml proinsulin; competitor AC1D4 20 µg/ml
[16] = target: human proinsulin (human) (UniProt P01308); test: competitive RIA, PEP001-coated tubes, 125I-Tyr-C-peptide; serum E2 overloaded with 3.33 pmol/ml proinsulin; competitor AC1D4 20 µg/ml
[17] = target: des-31,32-proinsulin (UniProt P01308); test: sandwich immunoenzymatic C-peptide assay: PEP001 beads, goat polyclonal anti-C-peptide-alkaline phosphatase; competitor BC9B6 20 µg/ml
[18] = target: des-64,65-proinsulin (UniProt P01308); test: as above
[19] = target: human proinsulin (human) (UniProt P01308); test: as above
[20] = target: des-31,32-proinsulin (UniProt P01308); test: competitive RIA, PEP001-coated tubes, 125I-Tyr-C-peptide; serum E1 overloaded with 3.33 pmol/ml des-31,32-proinsulin; competitor AC1D4 20 µg/ml
[21] = target: des-31,32-proinsulin (UniProt P01308); test: sandwich immunoenzymatic C-peptide assay: PEP001 beads, goat polyclonal conjugate; competitors AC1D4 + BC9B6 in equal quantities, column head 2 µg/ml
[22] = target: des-64,65-proinsulin (UniProt P01308); test: as above
[23] = target: human proinsulin (human) (UniProt P01308); test: as above
[24] = target: des-31,32-proinsulin (UniProt P01308); test: sandwich immunoenzymatic C-peptide assay: PEP001 beads, goat polyclonal conjugate; competitors AC1D4 + BC9B6 in equal quantities, 10 µg/ml
[25] = target: des-64,65-proinsulin (UniProt P01308); test: as above
[26] = target: human proinsulin (human) (UniProt P01308); test: as above
[27] = target: des-31,32-proinsulin (UniProt P01308); test: sandwich immunoenzymatic C-peptide assay: PEP001 beads, goat polyclonal conjugate; competitors AC1D4 + BC9B6 in equal quantities, 20 µg/ml
[28] = target: des-64,65-proinsulin (UniProt P01308); test: as above
[29] = target: human proinsulin (human) (UniProt P01308); test: as above

- percentage of cross reaction [1]: 108%
- percentage of cross reaction [2]: 94%
- percentage of cross reaction [3]: 92%
- Increase after overload (%) [4]: 1%
- Increase after overload (%) [5]: 12%
- percentage of cross reaction [6]: 108%
- percentage of cross reaction [7]: 94%
- percentage of cross reaction [8]: 92%
- Increase after overload (%) [9]: 8%
- Increase after overload (%) [10]: 38%
- Increase after overload (%) [11]: 10%
- Increase after overload (%) [12]: 6%
- Increase after overload (%) [13]: 55%
- Increase after overload (%) [14]: 6%
- Increase after overload (%) [15]: 1%
- Increase after overload (%) [16]: 0%
- percentage of cross reaction [17]: 115%
- percentage of cross reaction [18]: 8%
- percentage of cross reaction [19]: 8%
- Increase after overload (%) [20]: 21%
- percentage of cross reaction [21]: 65%
- percentage of cross reaction [22]: 48%
- percentage of cross reaction [23]: 23%
- percentage of cross reaction [24]: 30%
- percentage of cross reaction [25]: 18%
- percentage of cross reaction [26]: 4%
- percentage of cross reaction [27]: 19%
- percentage of cross reaction [28]: 10%
- percentage of cross reaction [29]: 2%
Substance: PEP001 anti-C-peptide monoclonal antibody
